Ends that are not written are not given here.
T1: TRX-APRIL (mouse, UniProt Q9D777 104-241)
T1 chain: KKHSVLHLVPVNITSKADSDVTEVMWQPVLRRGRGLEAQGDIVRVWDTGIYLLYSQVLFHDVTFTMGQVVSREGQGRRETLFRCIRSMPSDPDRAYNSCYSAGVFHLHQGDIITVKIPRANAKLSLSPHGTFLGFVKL

B1: TACI_d1 (first CRD of TACI, residues 32-67) (receptor)
chain: RSCPEEQYWDPLLGTCMSCKTICNHQSQRTCAAFCR
modifications: disulfide (positions not given here); also: more than one disulfide-bonded isomer, pairings not given here
B2: TACI_d1d2 (residues 21-116 of the TACI extracellular domain, C-terminal His-tag) (receptor)
chain: FPQGLWTGVAMRSCPEEQYWDPLLGTCMSCKTICNHQSQRTCAAFCRSLSCRKEQGKFYDHLLRDCISCASICGQHPKQCAYFCENKLRSPVNLPP

Experiments:
human BAFF [1] = biological target: T2, human BAFF (UniProt Q9Y275 82-285); experiment: competitive SPR
human BAFF [2] = biological target: T2, human BAFF; experiment: competitive SPR; remark: listed apart in the source
TRX-APRIL [3] = biological target: T1, TRX-APRIL; experiment: competitive SPR
human BAFF [4] = biological target: T2, human BAFF; experiment: competitive SPR; interaction observed, curve not fitted adequately
TRX-APRIL [5] = biological target: T1, TRX-APRIL; experiment: competitive SPR (BCMA-Fc)

T2 sequence (Q9Y275 82-285): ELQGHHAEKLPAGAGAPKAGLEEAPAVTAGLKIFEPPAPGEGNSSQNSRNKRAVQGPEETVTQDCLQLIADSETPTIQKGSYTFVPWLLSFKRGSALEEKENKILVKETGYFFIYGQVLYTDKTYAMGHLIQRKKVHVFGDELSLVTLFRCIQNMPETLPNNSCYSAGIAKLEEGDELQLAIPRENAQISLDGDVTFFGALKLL

Row | Binder | IC50 (human BAFF [1]) [nM] | IC50 (human BAFF [2]) [nM] | IC50 (TRX-APRIL [3]) [nM] | IC50 (human BAFF [4]) [nM] | IC50 (TRX-APRIL [5]) [nM]
1 | GSPWSLSCRKEQGKFYDHLLRDCISCASICGQHPKQCAYFCENKLR (receptor) [TACI_d2 (second cysteine-rich domain, CRD2, residues 68-109 of human TACI)] | 1.8 | 4 | 3.2 | – | –
2 | B1 | – | – | – | > 100 | 2000
3 | B2 | 1.3 | – | – | – | 11

From patent US20080181886A1 (published 2008)
